Assay results from patent US20250262210A1 (TRUSTEES OF COLUMBIA UNIVERSITY IN THE CITY OF NEW YORK, published 2025).

Columns and labels:
Assay in all cases: IP/MS, LZTR1 wild type-FLAG, U87
POLR1A = POLR1A (human, UniProt O95602 1-1720)
Outline: (§1)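 Read-out: spectral counts from LC-MS/MS (Orbitrap Fusion) after MaxQuant identification. Variable modifications were Met oxidation, protein N-terminal acetylation and N/Q deamidation.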

ARHGEF40 = ARHGEF40 (human, UniProt Q8TER5 1-1519, limits assumed)
ARHGEF40, sequence (Q8TER5 whole entry): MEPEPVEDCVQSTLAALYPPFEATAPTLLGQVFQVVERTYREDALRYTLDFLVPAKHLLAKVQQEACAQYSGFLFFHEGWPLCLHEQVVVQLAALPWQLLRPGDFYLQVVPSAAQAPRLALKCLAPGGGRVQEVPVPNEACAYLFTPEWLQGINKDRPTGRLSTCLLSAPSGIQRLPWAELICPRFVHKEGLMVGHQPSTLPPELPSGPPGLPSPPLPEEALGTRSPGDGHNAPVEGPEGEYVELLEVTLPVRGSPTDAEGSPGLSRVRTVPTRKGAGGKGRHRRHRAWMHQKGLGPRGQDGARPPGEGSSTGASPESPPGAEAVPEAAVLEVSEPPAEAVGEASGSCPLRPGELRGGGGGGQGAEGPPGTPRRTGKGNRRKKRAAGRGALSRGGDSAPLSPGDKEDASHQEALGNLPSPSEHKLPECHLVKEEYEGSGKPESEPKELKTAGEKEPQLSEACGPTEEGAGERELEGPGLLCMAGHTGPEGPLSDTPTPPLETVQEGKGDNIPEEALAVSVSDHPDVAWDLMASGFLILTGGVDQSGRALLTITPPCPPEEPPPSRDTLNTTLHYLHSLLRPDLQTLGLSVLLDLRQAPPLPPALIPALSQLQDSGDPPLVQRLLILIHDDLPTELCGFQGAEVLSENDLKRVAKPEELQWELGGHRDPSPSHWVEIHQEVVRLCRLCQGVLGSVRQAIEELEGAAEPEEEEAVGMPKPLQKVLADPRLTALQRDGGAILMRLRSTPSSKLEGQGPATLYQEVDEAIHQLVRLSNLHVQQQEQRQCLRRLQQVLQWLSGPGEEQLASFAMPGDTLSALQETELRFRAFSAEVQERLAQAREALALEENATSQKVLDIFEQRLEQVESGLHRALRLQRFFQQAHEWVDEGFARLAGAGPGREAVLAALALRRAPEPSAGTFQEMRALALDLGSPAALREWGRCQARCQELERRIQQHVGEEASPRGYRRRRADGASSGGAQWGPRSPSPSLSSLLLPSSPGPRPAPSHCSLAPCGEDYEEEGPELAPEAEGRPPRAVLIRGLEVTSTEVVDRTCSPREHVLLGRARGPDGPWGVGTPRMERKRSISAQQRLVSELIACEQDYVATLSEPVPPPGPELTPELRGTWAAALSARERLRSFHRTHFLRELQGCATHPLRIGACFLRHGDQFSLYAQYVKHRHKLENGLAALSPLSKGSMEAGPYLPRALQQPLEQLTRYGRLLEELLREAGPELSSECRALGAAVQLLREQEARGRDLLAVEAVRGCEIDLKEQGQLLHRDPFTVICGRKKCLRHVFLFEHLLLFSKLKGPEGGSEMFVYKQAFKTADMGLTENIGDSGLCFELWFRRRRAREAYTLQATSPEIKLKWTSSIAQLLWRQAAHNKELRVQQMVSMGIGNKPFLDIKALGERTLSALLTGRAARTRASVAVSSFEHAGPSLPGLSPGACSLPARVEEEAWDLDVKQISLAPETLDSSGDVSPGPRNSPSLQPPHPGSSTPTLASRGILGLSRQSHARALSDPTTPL
Outline: as §1

RUSC2 = RUSC2 (human, UniProt Q8N2Y8 1-1516)
Outline: as §1

VPS13A = VPS13A (human, UniProt Q96RL7 1-3174, limits assumed)
VPS13A, sequence (Q96RL7 whole entry): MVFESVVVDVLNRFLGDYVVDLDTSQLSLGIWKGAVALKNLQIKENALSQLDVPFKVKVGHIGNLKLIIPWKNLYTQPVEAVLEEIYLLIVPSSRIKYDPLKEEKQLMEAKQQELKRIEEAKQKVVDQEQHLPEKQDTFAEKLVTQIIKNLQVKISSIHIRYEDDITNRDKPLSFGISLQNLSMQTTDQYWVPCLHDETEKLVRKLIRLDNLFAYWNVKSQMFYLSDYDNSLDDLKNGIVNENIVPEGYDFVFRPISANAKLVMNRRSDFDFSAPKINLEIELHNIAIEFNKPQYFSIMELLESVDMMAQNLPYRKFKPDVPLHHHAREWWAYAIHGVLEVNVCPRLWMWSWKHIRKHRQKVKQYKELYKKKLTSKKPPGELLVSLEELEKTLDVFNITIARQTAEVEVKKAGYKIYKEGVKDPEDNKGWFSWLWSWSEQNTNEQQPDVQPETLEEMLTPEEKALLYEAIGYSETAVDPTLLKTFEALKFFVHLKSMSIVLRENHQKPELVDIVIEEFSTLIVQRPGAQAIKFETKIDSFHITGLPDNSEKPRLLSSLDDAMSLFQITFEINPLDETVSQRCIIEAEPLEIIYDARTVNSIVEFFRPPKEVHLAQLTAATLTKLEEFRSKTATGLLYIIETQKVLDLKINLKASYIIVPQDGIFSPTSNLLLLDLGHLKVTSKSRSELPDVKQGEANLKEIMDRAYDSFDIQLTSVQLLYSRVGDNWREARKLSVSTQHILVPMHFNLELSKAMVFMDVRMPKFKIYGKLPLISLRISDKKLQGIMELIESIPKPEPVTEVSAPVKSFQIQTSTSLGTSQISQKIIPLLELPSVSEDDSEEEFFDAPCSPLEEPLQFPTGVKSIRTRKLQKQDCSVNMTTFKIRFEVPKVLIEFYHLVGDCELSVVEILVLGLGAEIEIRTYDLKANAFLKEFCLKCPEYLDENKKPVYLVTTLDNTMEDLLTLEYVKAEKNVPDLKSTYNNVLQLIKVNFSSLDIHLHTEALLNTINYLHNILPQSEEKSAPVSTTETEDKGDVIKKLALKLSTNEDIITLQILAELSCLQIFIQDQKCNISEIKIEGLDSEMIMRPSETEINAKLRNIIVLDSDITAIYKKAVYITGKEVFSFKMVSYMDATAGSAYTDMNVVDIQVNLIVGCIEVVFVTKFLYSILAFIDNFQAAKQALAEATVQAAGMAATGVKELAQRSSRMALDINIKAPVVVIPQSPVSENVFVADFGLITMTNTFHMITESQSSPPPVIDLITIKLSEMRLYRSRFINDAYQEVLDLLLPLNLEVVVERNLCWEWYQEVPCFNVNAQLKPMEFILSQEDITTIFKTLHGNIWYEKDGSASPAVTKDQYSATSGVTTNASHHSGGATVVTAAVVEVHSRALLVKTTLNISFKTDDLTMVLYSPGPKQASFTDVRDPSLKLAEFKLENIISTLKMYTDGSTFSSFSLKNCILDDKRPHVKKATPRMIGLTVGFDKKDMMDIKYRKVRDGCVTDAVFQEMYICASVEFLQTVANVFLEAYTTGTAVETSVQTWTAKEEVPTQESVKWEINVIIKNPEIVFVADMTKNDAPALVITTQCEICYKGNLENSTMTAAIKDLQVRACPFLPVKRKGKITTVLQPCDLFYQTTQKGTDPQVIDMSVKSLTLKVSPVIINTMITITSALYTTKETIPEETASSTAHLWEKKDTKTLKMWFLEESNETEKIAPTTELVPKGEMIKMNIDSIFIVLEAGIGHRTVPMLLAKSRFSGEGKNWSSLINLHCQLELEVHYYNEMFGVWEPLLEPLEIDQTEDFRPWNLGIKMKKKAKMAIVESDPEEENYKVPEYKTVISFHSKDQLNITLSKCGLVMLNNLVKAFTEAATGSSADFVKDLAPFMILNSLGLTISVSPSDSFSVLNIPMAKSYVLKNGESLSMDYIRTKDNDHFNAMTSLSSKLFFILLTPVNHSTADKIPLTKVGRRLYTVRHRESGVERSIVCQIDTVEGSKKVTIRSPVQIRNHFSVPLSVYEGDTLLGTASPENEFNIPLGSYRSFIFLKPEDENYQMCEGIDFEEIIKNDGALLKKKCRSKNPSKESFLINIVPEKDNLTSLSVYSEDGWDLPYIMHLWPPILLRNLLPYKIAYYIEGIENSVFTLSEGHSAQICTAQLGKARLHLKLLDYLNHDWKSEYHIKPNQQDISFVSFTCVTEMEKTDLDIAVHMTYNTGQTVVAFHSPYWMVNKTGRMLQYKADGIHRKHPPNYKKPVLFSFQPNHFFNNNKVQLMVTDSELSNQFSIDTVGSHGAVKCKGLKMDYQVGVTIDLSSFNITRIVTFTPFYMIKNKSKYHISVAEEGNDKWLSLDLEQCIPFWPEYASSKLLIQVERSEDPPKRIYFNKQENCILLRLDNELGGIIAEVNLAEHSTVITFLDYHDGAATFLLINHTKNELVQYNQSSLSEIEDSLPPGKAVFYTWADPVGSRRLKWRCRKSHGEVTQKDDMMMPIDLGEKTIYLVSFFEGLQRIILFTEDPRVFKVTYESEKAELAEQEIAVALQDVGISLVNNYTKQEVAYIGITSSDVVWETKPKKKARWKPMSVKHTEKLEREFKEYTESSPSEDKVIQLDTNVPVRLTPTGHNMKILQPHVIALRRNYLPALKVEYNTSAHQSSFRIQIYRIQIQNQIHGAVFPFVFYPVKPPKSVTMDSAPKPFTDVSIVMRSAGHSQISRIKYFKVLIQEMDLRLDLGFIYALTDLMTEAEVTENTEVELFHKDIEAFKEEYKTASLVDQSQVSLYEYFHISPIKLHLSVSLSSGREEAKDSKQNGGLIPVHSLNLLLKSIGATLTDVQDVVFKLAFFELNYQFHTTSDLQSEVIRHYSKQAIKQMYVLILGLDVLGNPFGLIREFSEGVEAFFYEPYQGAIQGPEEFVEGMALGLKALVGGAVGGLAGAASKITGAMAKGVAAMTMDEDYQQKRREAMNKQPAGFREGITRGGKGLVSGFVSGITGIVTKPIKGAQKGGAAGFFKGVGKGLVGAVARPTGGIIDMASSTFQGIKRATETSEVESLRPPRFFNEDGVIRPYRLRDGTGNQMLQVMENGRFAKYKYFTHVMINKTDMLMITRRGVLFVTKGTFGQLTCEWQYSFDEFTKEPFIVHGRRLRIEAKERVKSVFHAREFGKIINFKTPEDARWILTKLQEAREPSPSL
Outline: as §1

SNX14 = target: T1, SNX14 (human, UniProt Q9Y5W7 1-946, limits assumed)
T1 sequence (looked up): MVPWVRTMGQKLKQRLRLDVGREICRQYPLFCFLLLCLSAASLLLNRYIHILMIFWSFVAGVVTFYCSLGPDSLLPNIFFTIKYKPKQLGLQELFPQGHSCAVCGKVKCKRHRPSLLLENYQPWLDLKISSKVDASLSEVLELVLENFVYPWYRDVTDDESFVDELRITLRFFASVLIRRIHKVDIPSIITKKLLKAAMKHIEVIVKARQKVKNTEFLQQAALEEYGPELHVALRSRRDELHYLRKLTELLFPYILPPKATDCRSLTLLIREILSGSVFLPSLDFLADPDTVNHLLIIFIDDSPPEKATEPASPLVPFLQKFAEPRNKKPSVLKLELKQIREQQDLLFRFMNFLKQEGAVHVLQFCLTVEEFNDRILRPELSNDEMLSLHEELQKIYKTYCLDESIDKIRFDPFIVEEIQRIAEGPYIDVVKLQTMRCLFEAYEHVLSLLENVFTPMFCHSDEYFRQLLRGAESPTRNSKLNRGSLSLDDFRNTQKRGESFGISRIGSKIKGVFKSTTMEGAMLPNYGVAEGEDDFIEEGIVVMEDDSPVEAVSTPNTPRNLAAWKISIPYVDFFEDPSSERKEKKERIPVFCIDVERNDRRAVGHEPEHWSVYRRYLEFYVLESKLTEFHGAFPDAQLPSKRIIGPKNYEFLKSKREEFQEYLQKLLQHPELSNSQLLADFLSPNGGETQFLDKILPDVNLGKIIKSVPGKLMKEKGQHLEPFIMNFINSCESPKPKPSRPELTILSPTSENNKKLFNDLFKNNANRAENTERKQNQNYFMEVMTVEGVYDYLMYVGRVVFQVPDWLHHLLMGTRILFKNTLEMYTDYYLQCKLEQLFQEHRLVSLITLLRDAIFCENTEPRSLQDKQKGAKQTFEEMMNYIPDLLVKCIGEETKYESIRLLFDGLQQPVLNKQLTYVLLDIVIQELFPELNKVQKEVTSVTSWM
Outline: as §1

PARP10 = target: T2, PARP10 (human, UniProt Q53GL7 1-1025)
T2 sequence (looked up): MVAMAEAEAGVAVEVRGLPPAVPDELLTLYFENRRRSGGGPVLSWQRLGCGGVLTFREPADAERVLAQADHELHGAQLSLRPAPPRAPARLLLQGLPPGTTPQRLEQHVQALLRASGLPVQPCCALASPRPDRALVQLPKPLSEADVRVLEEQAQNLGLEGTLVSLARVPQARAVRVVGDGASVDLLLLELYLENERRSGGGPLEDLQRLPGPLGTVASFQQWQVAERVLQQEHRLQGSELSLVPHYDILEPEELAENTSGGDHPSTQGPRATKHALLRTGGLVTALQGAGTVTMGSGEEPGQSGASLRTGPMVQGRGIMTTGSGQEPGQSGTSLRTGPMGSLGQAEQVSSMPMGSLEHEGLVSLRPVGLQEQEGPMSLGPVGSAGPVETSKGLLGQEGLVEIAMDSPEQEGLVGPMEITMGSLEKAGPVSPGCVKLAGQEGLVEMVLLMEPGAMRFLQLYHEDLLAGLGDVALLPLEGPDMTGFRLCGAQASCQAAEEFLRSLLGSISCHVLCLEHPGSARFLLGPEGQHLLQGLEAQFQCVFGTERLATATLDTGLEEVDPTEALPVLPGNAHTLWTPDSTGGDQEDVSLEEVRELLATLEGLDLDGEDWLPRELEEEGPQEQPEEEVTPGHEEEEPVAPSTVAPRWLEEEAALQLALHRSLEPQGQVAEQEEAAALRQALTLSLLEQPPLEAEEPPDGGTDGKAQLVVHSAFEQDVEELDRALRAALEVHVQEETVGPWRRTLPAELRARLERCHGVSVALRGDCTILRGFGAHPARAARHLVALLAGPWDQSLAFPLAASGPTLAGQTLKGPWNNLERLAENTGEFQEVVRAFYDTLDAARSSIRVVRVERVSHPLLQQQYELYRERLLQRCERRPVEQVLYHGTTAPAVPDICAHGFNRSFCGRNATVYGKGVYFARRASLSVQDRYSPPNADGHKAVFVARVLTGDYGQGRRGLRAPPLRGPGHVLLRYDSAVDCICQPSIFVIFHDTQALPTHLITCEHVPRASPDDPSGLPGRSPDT
Outline: as §1

binding result (POLR1A): binds | binding result (ARHGEF40): binds | binding result (RUSC2): binds | binding result (VPS13A): binds | binding result (SNX14): binds | binding result (PARP10): binds
B1: LZTR1-FLAG (other, human, UniProt Q8N653 1-840, looked up)
chain: MAGPGSTGGQIGAAALAGGARSKVAPSVDFDHSCSDSVEYLTLNFGPFETVHRWRRLPPCDEFVGARRSKHTVVAYKDAIYVFGGDNGKTMLNDLLRFDVKDCSWCRAFTTGTPPAPRYHHSAVVYGSSMFVFGGYTGDIYSNSNLKNKNDLFEYKFATGQWTEWKIEGRLPVARSAHGATVYSDKLWIFAGYDGNARLNDMWTIGLQDRELTCWEEVAQSGEIPPSCCNFPVAVCRDKMFVFSGQSGAKITNNLFQFEFKDKTWTRIPTEHLLRGSPPPPQRRYGHTMVAFDRHLYVFGGAADNTLPNELHCYDVDFQTWEVVQPSSDSEVGGAEVPERACASEEVPTLTYEERVGFKKSRDVFGLDFGTTSAKQPTQPASELPSGRLFHAAAVISDAMYIFGGTVDNNIRSGEMYRFQFSCYPKCTLHEDYGRLWESRQFCDVEFVLGEKEECVQGHVAIVTARSRWLRRKITQARERLAQKLEQEAAPVPREAPGVAAGGARPPLLHVAIREAEARPFEVLMQFLYTDKIKYPRKGHVEDVLLIMDVYKLALSFQLCRLEQLCRQYIEASVDLQNVLVVCESAARLQLSQLKEHCLNFVVKESHFNQVIMMKEFERLSSPLIVEIVRRKQQPPPRTPLDQPVDIGTSLIQDMKAYLEGAGAEFCDITLLLDGHPRPAHKAILAARSSYFEAMFRSFMPEDGQVNISIGEMVPSRQAFESMLRYIYYGEVNMPPEDSLYLFAAPYYYGFYNNRLQAYCKQNLEMNVTVQNVLQILEAADKTQALDMKRHCLHIIVHQFTKVSKLPTLRSLSQQLLLDIIDSLASHISDKQCAELGADI
notes: Expressed in HEK 293T, HeLa or U87 cells; used as cell lysate; also called LZTR1 wild type-FLAG; LZTR1 WT; not shown: FLAG tag at the C-terminus
